Reference: PMC8395503, “Epitope Mapping of Monoclonal Antibodies to Calreticulin Reveals That Charged Amino Acids Are Essential for Antibody Binding” (Antibodies, 2021)

B1: full-length recombinant wild-type calreticulin (natural protein, human, UniProt P27797 18-417, looked up)
chain: EPAVYFKEQFLDGDGWTSRWIESKHKSDFGKFVLSSGKFYGDEEKDKGLQTSQDARFYALSASFEPFSNKGQTLVVQFTVKHEQNIDCGGGYVKLFPNSLDQTDMHGDSEYNIMFGPDICGPGTKKVHVIFNYKGKNVLINKDIRCKDDEFTHLYTLIVRPDNTYEVKIDNSQVESGSLEDDWDFLPPKKIKDPDASKPEDWDERAKIDDPTDSKPEDWDKPEHIPDPDAKKPEDWDEEMDGEWEPPVIQNPEYKGEWKPRQIDNPDYKGTWIHPEIDNPEYSPDPSIYAYDNFGVLGLDLWQVKSGTIFDNFLITNDEAYAEEFGNETWGVTKAAEKQMKDKQDEEQRLKEEEEDKKRKEEEEAEDKEDDEDKDEDEEDEEDKEEDEEEDVPGQAKDEL
notes: calreticulin, human, Prot id P27797; called full-length recombinant wt CRT; Oligomers formed after heat treatment (57 °C 10 min, with or without 42 °C for 3 days); also called CRT; wt CRT; source: recombinant, produced using standard protocols and purified as previously described by Čiplys and colleagues [39]
B2: calreticulin purified from human placenta (natural protein, UniProt P27797 18-417, looked up)
chain: B1 chain
notes: calreticulin, human, Prot id P27797, purified from placenta; Heat-treated (57 °C 10 min) before native PAGE; also called CRT; human CRT purified from human placenta; source: purified from human placenta

Target: the molecule itself
Test: native gel or EMSA; native PAGE, 4-20% Tris-glycine gel, native running buffer pH 7.5, Coomassie staining; samples in native sample buffer heated 10 min at 57 °C (recombinant CRT with or without 3 days at 42 °C)

Protein	binding result
B1	binds
B2	binds
